According to article PMC12297413:

Molecular target: HgcR (D-2-hydroxyglutarate catabolic regulator), PP4494 (Pseudomonas putida KT2440)
Assay: SEC

HgcR (D-2-hydroxyglutarate catabolic regulator), PP4494 (natural protein)
stoichiometry N: 2
